Source: US20220056142A1 (Sanofi, published 2022)
Positions count from the first letter of the chain named.

T1: human FGFR3 (human, UniProt P22607 23-375)
T1 construct: also called hFGFR3
T1 sequence: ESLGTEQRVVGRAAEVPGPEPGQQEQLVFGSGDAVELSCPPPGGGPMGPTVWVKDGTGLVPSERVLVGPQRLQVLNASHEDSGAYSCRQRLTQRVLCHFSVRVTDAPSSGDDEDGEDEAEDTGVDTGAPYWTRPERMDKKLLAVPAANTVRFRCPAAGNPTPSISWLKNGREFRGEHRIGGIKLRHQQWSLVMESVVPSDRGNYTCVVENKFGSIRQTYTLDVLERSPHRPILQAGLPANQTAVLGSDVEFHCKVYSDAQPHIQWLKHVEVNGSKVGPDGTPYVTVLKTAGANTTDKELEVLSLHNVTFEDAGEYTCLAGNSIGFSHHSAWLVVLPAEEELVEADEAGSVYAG

T2: mouse FGFR3 (mouse, UniProt Q61851 21-369)
T2 construct: extracellular domain; also called mFGFR3
T2 sequence (looked up): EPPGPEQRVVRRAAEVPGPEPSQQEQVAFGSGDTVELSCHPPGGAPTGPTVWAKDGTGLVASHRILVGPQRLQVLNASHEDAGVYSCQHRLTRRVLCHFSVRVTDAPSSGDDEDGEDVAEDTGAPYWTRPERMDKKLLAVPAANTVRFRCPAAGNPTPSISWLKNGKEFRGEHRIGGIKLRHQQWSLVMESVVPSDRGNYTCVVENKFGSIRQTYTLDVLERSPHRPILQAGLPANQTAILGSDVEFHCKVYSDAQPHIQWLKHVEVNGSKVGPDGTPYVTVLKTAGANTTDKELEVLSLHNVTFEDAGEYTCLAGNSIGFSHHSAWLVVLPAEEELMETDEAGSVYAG

T3: human FGFR3 isoform IIIc (human, UniProt P22607 23-375, limits assumed)
T3 construct: also called hFGFR3IIIc; FGFR3 IIIc
T3 sequence: T1 sequence

T4: human FGFR3 isoform IIIb (human, UniProt P22607-2 23-377)
T4 construct: Isoform IIIb differs from the canonical IIIc entry in the D3 domain; also called hFGFR3IIIb; FGFR3 IIIb
T4 sequence (looked up): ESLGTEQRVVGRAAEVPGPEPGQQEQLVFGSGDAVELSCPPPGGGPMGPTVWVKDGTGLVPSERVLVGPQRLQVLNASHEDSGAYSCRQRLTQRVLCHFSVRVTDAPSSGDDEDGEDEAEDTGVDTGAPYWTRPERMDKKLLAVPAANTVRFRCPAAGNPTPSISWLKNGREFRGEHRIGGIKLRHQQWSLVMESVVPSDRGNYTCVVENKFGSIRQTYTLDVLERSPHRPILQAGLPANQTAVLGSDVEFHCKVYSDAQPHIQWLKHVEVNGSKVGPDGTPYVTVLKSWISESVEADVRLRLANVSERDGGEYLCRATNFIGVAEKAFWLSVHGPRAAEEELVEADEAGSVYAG

T5: cynomolgus FGFR3 (cynomolgus)
T5 construct: also called cynoFGFR3
T5 chain: T1 sequence with A13V, P17S, G22S, T57A, R94L, R171K

T6: N-terminal ECD protein of mouse FGFR3 with a terminal avidin tag (mouse, UniProt Q61851 21-369)
T6 construct: extracellular domain; not shown: terminal avidin tag
T6 sequence (looked up): T2 sequence (looked up)

B1: KC18_Hu16 (antibody, human IgG1, kappa, V domains shown)
VH: EVQLVQSGAEVKKPGATVKLSCKASGDTFTDFEIHWVQQAPGKGLEWIGDVDPETGGTAYAEKFQGRATLTADRSTDTAYMELSSLRSEDTAVYYCTRTYDGYPYAMDYWGQGTLVTVSS
VL: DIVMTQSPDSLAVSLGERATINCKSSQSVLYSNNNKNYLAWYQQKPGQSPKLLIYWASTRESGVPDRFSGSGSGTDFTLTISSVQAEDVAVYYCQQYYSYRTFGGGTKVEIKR
B2: KC18_Hu27 (antibody, human IgG1, kappa, V domains shown)
VH: B1 VH with E1Q, K12V, Q38K, V51I, A61N, D77S, L115T
VL: DIVMTQSPSSLAVSLGERVTMNCKSSQSLLYSNNQKNYLAWYQQKPGQSPKLLIYWASTRESGVPDRFSGSGSGTDFTLTISSVQAEDVAVYYCQQYYSYRTFGGGTKLEIKR
B3: KC18_Hu19 (antibody, human IgG1, kappa, V domains shown)
VH: B1 VH with E1Q, K12V, L20I, V51I, A61N, D77S, T97A, L115T
VL: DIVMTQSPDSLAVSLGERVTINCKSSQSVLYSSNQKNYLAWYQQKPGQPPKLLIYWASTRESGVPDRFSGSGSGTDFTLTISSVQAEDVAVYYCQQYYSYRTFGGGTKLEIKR
B4: KC18_Hu18 (antibody, human IgG1, kappa, V domains shown)
VH: B1 VH with M107F
VL: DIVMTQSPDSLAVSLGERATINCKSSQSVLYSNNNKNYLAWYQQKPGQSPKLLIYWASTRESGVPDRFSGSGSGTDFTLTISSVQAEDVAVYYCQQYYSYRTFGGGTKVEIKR
B5: KC18_Hu12 (antibody, human IgG1, kappa, V domains shown)
VH: B1 VH with M107F
VL: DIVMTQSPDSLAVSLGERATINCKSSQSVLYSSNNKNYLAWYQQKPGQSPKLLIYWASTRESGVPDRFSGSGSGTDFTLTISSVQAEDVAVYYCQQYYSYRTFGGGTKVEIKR
B6: KC18_Hu7 (antibody, human IgG1, kappa, V domains shown)
VH: B1 VH with E1Q, T17S, L20V, Q38R, K43Q, V51I, G57S, A59S, E62Q, D77S
VL: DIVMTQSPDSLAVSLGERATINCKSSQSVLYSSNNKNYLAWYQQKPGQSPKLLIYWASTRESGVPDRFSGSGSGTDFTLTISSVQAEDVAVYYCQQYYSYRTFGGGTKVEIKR
B7: KC18_Hu23 (antibody, human IgG1, kappa, V domains shown)
VH: B1 VH with E1Q, K12V, L20I, V51I, A61N, D77S, T97A, L115T
VL: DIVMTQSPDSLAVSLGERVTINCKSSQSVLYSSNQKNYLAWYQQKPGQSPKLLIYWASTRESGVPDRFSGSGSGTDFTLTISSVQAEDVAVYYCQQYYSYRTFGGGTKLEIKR
B8: KC18_Hu10 (antibody, human IgG1, kappa, V domains shown)
VH: B1 VH
VL: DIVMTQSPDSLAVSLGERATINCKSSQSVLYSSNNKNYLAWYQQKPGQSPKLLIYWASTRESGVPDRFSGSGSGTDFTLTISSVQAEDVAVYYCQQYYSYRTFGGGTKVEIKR
B9: KC18_Hu13 (antibody, human IgG1, kappa, V domains shown)
VH: B1 VH with E1Q, T17S, L20V, Q38R, K43Q, V51I, G57S, A59S, E62Q, D77S
VL: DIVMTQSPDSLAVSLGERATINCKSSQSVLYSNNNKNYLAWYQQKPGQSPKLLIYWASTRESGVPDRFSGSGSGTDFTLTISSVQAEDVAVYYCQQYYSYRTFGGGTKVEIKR
B10: KE63 (antibody, V domains shown)
VH: QVQLQQSGAELVRPGASVTLSCKASGSTFSDFEIHWVKQTPVHGLEWIGGIDPETGGTAYNQKFKGKAILTADRSSSTAYMELRSLTSEDSAVYYCTRNYDGYSQTMDYWGQGTSVTVSS
VL: NIMMTQSPSSLAVSAGEKVTMSCKSSQSVLYSSNQKNYLAWYQQKPGQSPKLLIYWASTRESGVPDRFTGSGSGTDFTLTISSVQAEDLAVYYCHQYLSSYTFGGGTKLEMK
notes: Mouse hybridoma monoclonal antibody
B11: KC18 (antibody, V domains shown)
VH: B10 VH with S27D, S30T, G50D, K65R, K67R, I69M, N99T, S104P, Q105Y, T106A
VL: DIVMSQSPSSLAVSVGEKVTMSCKSSQSLLYSNNQKNYLAWYQQKPGQSPKLLIYWASTRESGVPDRFTGSGSGTDFTLTISSVKAEDLAVYYCQQYYSYRTFGGGTKLEIK
notes: Mouse monoclonal antibody from a hybridoma; also called anti-FGFR3 antibody KC18; KC18 mouse antibody
B12: KC18 (antibody, V domains shown)
VH: B10 VH with S27D, S30T, G50D, K65R, K67R, I69M, N99T, S104P, Q105Y, T106A
VL: B11 VL
notes: Mouse hybridoma antibody; also called parental KC18 antibody
B13: KE63 (antibody, V domains shown)
VH: B10 VH
VL: B10 VL
notes: Mouse monoclonal antibody from a hybridoma; also called anti-FGFR3 antibody KE63
B14: KE94 (antibody, V domains shown)
VH: B10 VH with S30T, G50A, D73V, R74K, E82G, Q105R
VL: B10 VL with T78S, T80S, A86T, K108R
notes: Mouse monoclonal antibody from a hybridoma; also called anti-FGFR3 antibody KE94
B15: KC18_Hu28 (antibody, human IgG1, kappa, V domains shown)
VH: QVQLVQSGAEVVKPGASVKLSCKASGDTFTDFEIHWVKQAPGQGLEWIGDIDPETGGTAYNQKFQGRATLTADRSSSTAYMELSRLRSDDTAVYYCTRTYDGYPYAMDYWGQGTTVTVSS
VL: B2 VL
B16: KC18_Hu34 (antibody, human IgG1, kappa, V domains shown)
VH: B15 VH
VL: DIVMTQSPLSLAVTVGEKVSISCRSSQSLLYSNNQKNYLAWYQQKPGQSPKLLIYWGSTRESGVPDRFSGSGSGTDFTLTISRVEAEDVGVYYCQQYYSYRTFGGGTKLEIKR
B17: KE35 (antibody, V domains shown)
VH: EVQLQQSGPELVKPGASVKMSCKASGYTFTDYNMHWVKQSHGKSLEWIGYINPNNGGTRYNQKFKGKATLTVNKSSSTAYMELRSLTSEDSAVYYCARERDYDGAMDYWGQGTSVTVSS
VL: DIQMTQSPSSLSASLGGKVTITCKASQDINKFIAWYQHKPGKGPRLLIHYTSTLQPGIPSRFSGSGSGRDYSFSISNLEPEDIATYYCLQYDNLLWTFGGGTKLEIK
notes: Mouse monoclonal antibody from a hybridoma; also called anti-FGFR3 antibody KE35
B18: KE42 (antibody, V domains shown)
VH: B17 VH with E46Q, R59N, K63N, G66D, S77T, A105S, Y108F
VL: B17 VL with Y87F
notes: Mouse monoclonal antibody from a hybridoma; also called anti-FGFR3 antibody KE42
B19: KE58 (antibody, V domains shown)
VH: EVQLQQSGPDLVKPGASVKISCKASGYTVTDYYMNWVKQSHGKSLEWIGDINPNNGVTTYNQKFKDKATLTVDKSSSTAYMELRSLTSEDSAVYYCAREEDFDGFDYWGQGTTLTVSS
VL: DIVMTQSHKFMSTSVGDRVSITCKASQDVSTGVAWYQQKPGQSPQLLIYWASTRHTGVPDRFTGSGSGTDYILTIRSVQAEDLALYYCQQHYSTPLTFGAGTKLELK
notes: Mouse monoclonal antibody from a hybridoma; also called anti-FGFR3 antibody KE58

Tests used:
human FGFR3 = molecular target: T1, human FGFR3; assay: affinity table; method not restated (Biacore SPR per Example 1)
mouse FGFR3 = molecular target: T2, mouse FGFR3; assay: as above
[1] = molecular target: T7, wild-type human FGFR3 isoform IIIc, full length, expressed on transfected cells (human, UniProt P22607 23-806); assay: FACS, cells transfected with wild-type FGFR3
T7 construct: also called wild-type FGFR3; FGFR3-300.19
Description: (§1) After three washes, the cells were incubated with a fluorescent-conjugated secondary antibody (Invitrogen).

[2] = molecular target: T8, human FGFR3 G380R isoform IIIc, full length, expressed on transfected cells (human, UniProt P22607 23-806); assay: FACS, cells transfected with mutant FGFR3 (G380R)
T8 construct: also called mutant FGFR3; FGFR3^G380R-300.19
Description: as §1

human FGFR3 isoform IIIc = molecular target: T3, human FGFR3 isoform IIIc; assay: reactivity grade (Table 2); method not given
human FGFR3 isoform IIIb = molecular target: T4, human FGFR3 isoform IIIb; assay: reactivity grade (Table 2); method not given
cynomolgus FGFR3 = molecular target: T5, cynomolgus FGFR3; assay: reactivity grade (Table 2); method not given
[3] = molecular target: T6, N-terminal ECD protein of mouse FGFR3 …; assay: SPR (Biacore), FGFR3 ECD immobilised on chip, antibody injected, 1:1 fit
Description: The N-terminal ECD proteins of FGFR3 from human and mouse were produced with a terminal avidin tag and used in a forward format Biacore assay where proteins were immobilized on a Biacore chip and then the kinetics of antibody interaction with the proteins on the chip were determined. The proteins were immobilized on a Biacore chip for approximately 10,000 response units (RU). Then the antibodies were exposed to the chip for kinetic measurements, following the manufacturer's recommendations (GE Healthcare). Sensorgrams were fit to a 1:1 binding model and analyzed using double-reference subtraction by T200 Evaluation software (GE Healthcare).

| Binder | Kd (human FGFR3) | Kd (mouse FGFR3) | binding result (human FGFR3 isoform IIIc) | binding result (human FGFR3 isoform IIIb) | binding result (cynomolgus FGFR3) | Kd [3] | koff [3] | kon [3] | further results |
| --- | --- | --- | --- | --- | --- | --- | --- | --- | --- |
| B1 | 3.76 nM | 4.23 nM | – | – | – | – | – | – | – |
| B2 | 3.9 nM | 4.6 nM | – | – | – | – | – | – | – |
| B3 | 2.99 nM | 3.78 nM | – | – | – | – | – | – | – |
| B4 | 1.25 nM | 1.42 nM | – | – | – | – | – | – | – |
| B5 | 1.61 nM | 1.73 nM | – | – | – | – | – | – | – |
| B6 | 5.41 nM | 6.36 nM | – | – | – | – | – | – | – |
| B7 | 2.68 nM | 3.35 nM | – | – | – | – | – | – | – |
| B8 | 4.73 nM | 5.15 nM | – | – | – | – | – | – | – |
| B9 | 4.52 nM | 5.28 nM | – | – | – | – | – | – | – |
| B10 | – | – | – | – | – | – | – | – | binding result [1]: binds; binding result [2]: binds |
| B11 | – | – | binds | binds | binds | 6.3 nM | 0.0011 s⁻¹ | 174000 M⁻¹ s⁻¹ | – |
| B12 | 2.73 nM | 3.78 nM | – | – | – | – | – | – | – |
| B13 | – | – | binds | binds | binds | 6.7 nM | 0.00291 s⁻¹ | 436000 M⁻¹ s⁻¹ | – |
| B14 | – | – | binds | binds | binds | 2.1 nM | 0.00148 s⁻¹ | 705000 M⁻¹ s⁻¹ | – |
| B15 | 4.46 nM | 5.41 nM | – | – | – | – | – | – | – |
| B16 | 6.85 nM | 8.14 nM | – | – | – | – | – | – | – |
| B17 | – | – | binds | binds | binds | 1.89 nM | 0.00108 s⁻¹ | 571000 M⁻¹ s⁻¹ | – |
| B18 | – | – | binds | binds | binds | 0.81 nM | 0.0006 s⁻¹ | 739000 M⁻¹ s⁻¹ | – |
| B19 | – | – | binds | binds | binds | 5.5 nM | 0.000918 s⁻¹ | 167000 M⁻¹ s⁻¹ | – |
